Biological target: 123 different clinical envelope proteins
Assay: cell-based or functional assay

Row | Binder | Geometric mean EC50 (nM), cell-cell fusion assay | Geometric mean EC50 (µg/mL), cell-cell fusion assay | Median EC50 (nM), cell-cell fusion assay
1 | CD4 A Adnectin (anti-CD4 Domain 2 Adnectin) (designed binder) GVSDVPRDLEVVAATPTSLLISWDAPAVTVHSYHIQYWPLGSYQRYQVFSVPGSKSTATISGLKPGVEYQIRVYAETGGADSDQSFGWIQIGYRTP | 5.5 nM | 0.006 µg/mL | 5.3 nM
2 | CD4 B Adnectin (anti-CD4 Domain 4 Adnectin) (designed binder) MASTSGSASYLIPSDLEVVAATPTSLSIYWYPVASTIINFRITYVETGGNSPVQEFTVPGSKSTATISGLKPGVDYTITVYAVHYEQKYSEYWIGHPISINYRTEGSGSHHHHHH | 163 nM | 1.8 µg/mL | 1300 nM

Reference: US20240239877A1
